T1: human OX40 on cells (CHO-K1/hu OX40) (human, UniProt P43489 29-277)
T1 sequence (looked up): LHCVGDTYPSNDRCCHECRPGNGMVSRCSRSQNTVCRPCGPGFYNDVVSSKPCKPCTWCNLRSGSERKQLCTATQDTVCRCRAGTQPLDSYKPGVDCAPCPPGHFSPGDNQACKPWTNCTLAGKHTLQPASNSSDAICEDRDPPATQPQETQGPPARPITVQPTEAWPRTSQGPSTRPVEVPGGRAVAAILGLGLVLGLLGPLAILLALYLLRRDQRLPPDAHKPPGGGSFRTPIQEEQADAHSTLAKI

T2: human OX40 protein (Acro biosystem, #OX0-H5224) (human, UniProt P43489 29-216)
T2 construct: Bought recombinant protein
T2 sequence (looked up): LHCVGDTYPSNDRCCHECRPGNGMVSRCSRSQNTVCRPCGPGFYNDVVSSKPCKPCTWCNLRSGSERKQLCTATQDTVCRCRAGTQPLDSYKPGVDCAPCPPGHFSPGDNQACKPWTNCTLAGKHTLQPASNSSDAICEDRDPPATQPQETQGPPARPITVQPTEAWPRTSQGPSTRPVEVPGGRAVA


Assays:
[1] = target: T1, human OX40 on cells (CHO-K1/hu OX40); assay: cell-based or functional assay
[2] = target: T1, human OX40 on cells (CHO-K1/hu OX40); assay: FACS, CHO-K1/hu OX40 cells
Experimental: This example is intended to investigate the in vitro binding activity of anti-human OX40 HCAb monoclonal antibodies to human OX40. The antibody binding assay at the cellular level was performed using a stable CHO-K1 cell strain overexpressing human OX40 (CHO-K1/hu OX40). Briefly, the CHO-K1/hu OX40 cells were digested, resuspended in an F12K complete medium and washed once with PBS. The cell density was adjusted to 1×10⁶ cells/mL with PBS. The cells were seeded in a 96-well V-bottom plate (Corning, #3894) at 100 μL/well, and centrifuged, and then the supernatant was discarded. Then, the test antibodies diluted in a 3-fold gradient at concentrations that were 2 times the final concentrations were added at 100 μL/well. The cells were incubated at 4° C. for 1 h away from light. Thereafter, the cells in each well were rinsed twice with 100 μL of pre-cooled PBS, and centrifuged at 500 g at 4° C. for 5 min, and then the supernatant was discarded. […] The plate was incubated away from light at 4° C. for 30 min. The cells in each well were rinsed twice with 100 μL of pre-cooled PBS, and centrifuged at 500 g at 4° C. for 5 min, and then the supernatant was discarded. Finally, the cells in each well were resuspended in 200 μL of pre-cooled PBS, and the fluorescence signal values were read using a BD FACS CANTOII.

[3] = target: T3, cynomolgus monkey OX40 protein (Novoprotein, #CB17) (cynomolgus monkey); assay: ELISA, coated cyno OX40 protein
T3 construct: Bought recombinant protein; also called cyno OX40
Experimental: (§1) This example is intended to investigate the in vitro binding activity of the anti-OX40 HCAb monoclonal antibodies prepared in Example 1 to human and cynomolgus monkey OX40 proteins. The antibody binding assay at the protein level was performed using a human OX40 protein (Acro biosystem, #OX0-H5224) and a cynomolgus monkey OX40 protein (Novoprotein, #CB17). Briefly, a 384-well plate (PerkinElmer, #6007509) was coated with 1 μg/mL human OX40 protein and a cynomolgus monkey OX40 protein dissolved in PBS at 20 μL/well, and incubated at 4° C. overnight. The next day, the 384-well plate was washed three times with PBS containing 0.05% Tween (MEDICAGO, #09-9410-100), and blocked with PBS containing 2% milk (Bio-Rad, #170-6404) at 37° C. for 1 h. […] The plate was added with a stop buffer (BBI life sciences, #E661006-0200) at 20 μL/well, and read for OD₄₅₀₋₆₅₀ values using a plate reader (Molecular Devices, model: SpectraMax Plus). The values were analyzed with Graphad 8.0 and plotted.

[4] = target: T2, human OX40 protein (Acro biosystem, …); assay: ELISA, coated human OX40 protein
Experimental: as §1

[5] = target: T1, human OX40 on cells (CHO-K1/hu OX40); assay: FACS, blocking of biotin-human OX40L on CHO-K1/hu OX40 cells
Experimental: Briefly, the CHO-K1/hu OX40 cells were digested and resuspended in an F-12K complete medium, and the cell density was adjusted to 1×10⁶ cells/mL. The cells were seeded in a 96-well V-bottom plate (Corning, #3894) at 100 μL/well, and centrifuged, and then the supernatant was discarded. The test antigen-binding proteins diluted in a 3-fold gradient at concentrations that were 2 times the final concentrations were added at 100 μL/well, and the mixture was well mixed, wherein the antigen-binding protein had the highest final concentration of 100 nM, and a total of 8 concentrations were obtained. […] The cells were incubated at 4° C. for 1 h away from light. Thereafter, the cells were centrifuged at 4° C. for 5 min, and then the supernatant was discarded. […] The cells in each well were rinsed twice with 100 μL of pre-cooled PBS, and centrifuged at 500 g at 4° C. for 5 min, and then the supernatant was discarded. A 1:200 fluorescent secondary antibody PE Streptavidin (BD Biosciences, #554061) was added at 100 μL/well, and the cells were incubated away from light at 4° C. for 30 min. The cells in each well were rinsed twice with 200 μL of pre-cooled PBS, and centrifuged at 500 g at 4° C. for 5 min, and then the supernatant was discarded. Finally, the cells in each well were resuspended in 200 μL of precooled PBS. Fluorescence signal values were read using BD FACS CANTOII, and IC50 was calculated. Inhibition rate %={average MFI of non-blocking control well−MFI value of OX40 antibody}/{(average MFI of non-blocking control well)−average MFI of 100% blocking control well)}×100%.

Row | Binder | EC50, HEK293/OX40/NF-kb luciferase reporter [1] [nM] | Maximum fluorescence signal value, HEK293/OX40/NF-kb luciferase reporter [1] [luminescence] | EC50 [2] [nM] | Maximum MFI [2] [MFI] | EC50 [3] [nM] | Maximum OD [3] [OD] | EC50 [4] [nM] | Maximum OD [4] [OD] | Maximum inhibition rate (%) [5] [%] | IC50 [5] [nM]
1 | PR002061 (antibody, human IgG1, V domains shown, no light chain; also called anti-OX40 HCAb antibody) VH: EVQLLESGGGLVQPGGSLRLSCAASGFTFSSYAMSWVRQAPGKGLEWVSAISGRGGSTYYADSVRGRFTISRDNSKNTLYLQMNSLRAEDTAVYYCANGMTGTTDVDYWGQGTLVTVSS | 23.2 | 156000 | 10.9 | 1740 | 0.152 | 1.87 | 0.134 | 1.96 | 16 | 
2 | PR002059 (antibody, human IgG1, V domains shown, no light chain; also called anti-OX40 HCAb antibody) VH: EVQLLESGGGLVQPGGSLRLSCVVSGLTFSSYAMSWVRQAPGKGREWVSAISGRGGSTFYADSVRGRFTISRDNSKNTLYLQMNSLRAEDTAVYYCANGMTGSTDVDYWGQGTLVTVSS | 1.83 | 117000 | 1.35 | 3630 | 0.0774 | 1.9 | 0.0695 | 2 | 79 | 15.9
3 | PR002057 (antibody, human IgG1, V domains shown, no light chain; also called anti-OX40 HCAb antibody) VH: EVQLLESGGGLVQPGGSLRLSCAASGFIFSSYAMSWVRQAPGKGLEWVSAISGGGGSTFYADSVRGRFTISRDNSKNTLYLQMNSLRAEDTAVYYCADGMTGTTDVDYWGQGTLVTVSS | 14.3 | 172000 | 12.8 | 1670 | 0.133 | 1.76 | 0.124 | 1.76 | 12 | 
4 | PR002056 (antibody, human IgG1, V domains shown, no light chain; also called anti-OX40 HCAb antibody) VH: EVQLLESGGGLVQPGGSLRLSCAASGFTFSSYAMSWVRQAPGKGLEWVSAISGGGGSIFYADSVRGRFTISRDNSKNTLYLQMNSLRAEDTAVYYCANGMTGTTDVDYWGQGTLVTVSS | 4.89 | 154000 | 3.12 | 2930 | 0.0682 | 1.69 | 0.057 | 1.71 | 34 | 43.7
5 | PR002075 (antibody, human IgG1, V domains shown, no light chain; also called anti-OX40 HCAb antibody) VH: EVQLVETGGGLIQPGGSLRLSCAASGFTFSSYAMSWVRQAPGKGLEWVSAISGSGGNTYYADSVRGRFTISRDNSKNTLYLQMNSLRAEDTAVYYCANGITGTTDVDYWGQGTRVTVSS |  |  |  |  | 0.415 | 3.07 | 0.0618 | 2.48 |  | 
6 | PR002060 (antibody, human IgG1, V domains shown, no light chain; also called anti-OX40 HCAb antibody) VH: EVQLLESGGGLVQPGGSLRLSCAASGFTFSDYAMSWVRQAPGKGLEWVSAISGRGGSTYYADSVRGRFTISRDNSKNTLYLQMTSLRAEDTAVYYCANGMTGTTDVDYWGQGTLVTVSS | 15.1 | 132000 | 8.95 | 1860 | 0.0938 | 1.94 | 0.0828 | 2.09 | 12 | 

Reference: patent US20230295324A1 (published 2023)
